{"source": "paper PMC9861184"}
{"system": "T1, SigW (ECF sigma factor, GST fusion) (Pseudomonas donghuensis HYS), ORF:b11b1795", "T1 sequence": "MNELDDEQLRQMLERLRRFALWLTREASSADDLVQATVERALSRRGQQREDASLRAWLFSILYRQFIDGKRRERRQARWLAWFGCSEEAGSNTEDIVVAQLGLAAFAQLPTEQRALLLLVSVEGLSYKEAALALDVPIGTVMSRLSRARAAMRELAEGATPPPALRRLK", "assay": "EMSA", "details": "EMSA: 0.3 uM DNA in 20 uL, 10 mM Tris-HCl pH 7.5, 150 mM NaCl, 2 mM DTT, 2 mM EDTA, 10% glycerol, 30 C 40 min; 6.8% native PAGE in 0.5x TBE on ice, EB stain"}
{"sequence": "CGAACTCATGGCCTGCCCCCGGGAACGGGCGCAGGGGCACGGTAAAACAGGTACAGGCGCATGGCTTCAGAACTCCGGGTAATTGAGGTACCCGGCAAGTCTATGGAGGCCGATTACTGACGAAAACTGACATATTCGCAGCTTTATGCTGCATGAGACGCAACTATACGATCAGGTATATATAAGCGCTCAAAAGCATC (double strand) [orf2-orf5 promoter]", "binding": "binds more weakly"}
{"sequence": "CCCTACCGTATTTGAACGGCTGGCCAGCCCTCTGTGTCCTTGCACGCCCTTGAGTTAGGGCCTGCATGCCCCATTTGCGGGCAGAGAACACTGCCGGTTCAAAGACATTCAGGGAAAAACCTCCAGGATCGGAGCCCCGTGGTCTGGCTGGCAGTCTTTCTCACAAATGCGATCAGGTAAATTCTGGAGTCATTCGTGAAACAAGCTCAACTTCCGCGCAAGATACCCACACAAGCCCGCTCGAGG (double strand) [orf12 promoter]", "binding": "binds"}
{"sequence": "GCCCGCGTATTTCCTGAGCTCAACCTGAGCAATCACGCAGCGCCGCACTCGGTTATTTGAATGCGAGTAGCCATAGCACGGCAACTTGCCTAGGATAAGAAACAAATTGAAACGTTGTTAAAAGTGACAACTACCCGCTCAACGATGTTTCAACTTTCTTGCAATCTTCAGCCCCACAAATCAATAAAAGGACGTTCACGATGAGCAACAAGGGTTTTGACACCG (double strand) [orf9-orf6 promoter]", "binding": "binds"}
{"sequence": "TCAATGGCGATCAGTACCGAGCTGTACATGGTGACGGGACCCATTCTGAATACAAAGAGCAGGCATTCTTGAAAAAGCGTGCGGCCGGGTAAATGGTGCGCGGTGCAATGACTAGTTGCGCAGAATGCAAGGGCTGGAAAACCTGCAGAAACTGGTAAGATTGCAGCGGATTCACTGAAATACATGAATGGATGCTTACCATGCACTTTCCGGATA (double strand) [orf1 promoter]", "binding": "binds"}
